Series [1] concerns the target T1, PvTAT (tyrosine aminotransferase of Prunella vulgaris) (Prunella vulgaris, UniProt A0A0U1ZFM1).
T1 construct: gene tat; E. coli Rosetta (DE3); cloning primers translate to N-terminus MELQSSAQ and C-terminus FCERHSY
As to the kind of experiment: phenylpyruvate absorbance at […] nm, nonlinear Michaelis-Menten fit. The series is classed as biochemical. Conditions: 10 mM α-ketoglutarate; 0.1 mM PLP, 0.75 mM EDTA, 125 mM potassium phosphate pH 8.0, 30 °C.

Substrate in series [2]: O=C(O)CCC(=O)C(=O)O
The series is described as follows: purified protein. The series is classed as biochemical, Prunella vulgaris. The settings on record: 5.5 mM L-Tyr as amino donor, 0.1 mM PLP, 0.75 mM EDTA, 125 mM potassium phosphate pH 8.0, 30 °C.

Substrate in series [3]: O=C(O)CC(=O)C(=O)O
The series is described as follows: purified protein. Conditions: 5.5 mM L-Tyr as amino donor, 0.1 mM PLP, 0.75 mM EDTA, 125 mM potassium phosphate pH 8.0, 30 °C. The series is classed as biochemical, Prunella vulgaris.

Substrate in series [4]: O=C(O)C(=O)Cc1ccc(O)cc1
The series is described as follows: purified protein. The class given is biochemical, Prunella vulgaris. The settings on record: 10 mM L-Glu as amino donor, 0.3 mM NAD, 0.3 mM CoA, 0.75 mM EDTA, 125 mM potassium phosphate pH 8.0, 30 °C.

Substrate in series [5]: N[C@@H](Cc1ccc(O)cc1)C(=O)O
The series is described as follows: purified protein. The class given is biochemical, Prunella vulgaris. Conditions: 10 mM α-ketoglutarate, 0.1 mM PLP, 0.75 mM EDTA, 125 mM potassium phosphate pH 8.0, 30 °C.

Substrate in series [6]: CC(=O)C(=O)O
The series is described as follows: purified protein. The series is classed as biochemical, Prunella vulgaris. The settings on record: 5.5 mM L-Tyr as amino donor, 0.1 mM PLP, 0.75 mM EDTA, 125 mM potassium phosphate pH 8.0, 30 °C.

Substrate in series [7]: O=C(O)C(=O)Cc1ccccc1
As to the kind of experiment: purified protein. The settings on record: 5.5 mM L-Tyr as amino donor, 0.1 mM PLP, 0.75 mM EDTA, 125 mM potassium phosphate pH 8.0, 30 °C. The class given is biochemical, Prunella vulgaris.

Substrate in series [8]: N[C@@H](Cc1c[nH]c2ccccc12)C(=O)O
The series is described as follows: purified protein. The series is classed as biochemical, Prunella vulgaris. The settings on record: 10 mM α-ketoglutarate, 0.1 mM PLP, 0.75 mM EDTA, 125 mM potassium phosphate pH 8.0, 30 °C.

As a reminder, the Km is the concentration of substrate that gives half-maximal velocity. One may read the Vmax as the top rate of the reaction or transport when substrate is in excess. By kcat is commonly meant the maximal rate divided by the concentration of active sites. Broadly, the kcat/Km is the turnover number divided by the Michaelis constant.

For the molecule `N[C@@H](Cc1ccccc1)C(=O)O` [L-Phe], in series [1], the Michaelis constant (Km) came to 10.2 ± 0.05 mM.

B1: PvTAT (tyrosine aminotransferase of Prunella vulgaris) (Prunella vulgaris) (protein)
chain: MELQSSAQELDAPTTITIKGILGLLVSSTDAKETGKRVISLGIGDPTAYSCFHVSNAAQEAVVEALRSQKFNGYAPTAGLPQAREAIAEYLSRDLPYKLPADSVYVTAGCTQAIEIALSVLARPGCNILLPRPCFPIYGLCASFRNIEVRYFDLHPEKGWEVDLDAVQDLADHNTVAMVIINPGNPCGNVYSHQHLRKVAEMAKRLGIVVIADEVYGQLAFGANPFVPMGIFGSIAPVVTLGSLSKRWLIPGWRLGWLVINDPDGSLMSPKFVERIKKYCDINGGPATFIQAAVPEIIEQTQEVFFRKTINILKQTSDICYQKVEDINGISCPTKPKGAMAFMVKLNISQMKDISDDIDFCFKLAKEESVIILPGIAVGLKNWIRITFAVEPSALEEAMERLKSFCERHSY
notes: E. coli Rosetta (DE3); cloning primers translate to N-terminus MELQSSAQ and C-terminus FCERHSY
B1: the Michaelis-Menten constant (Km) in “purified protein [2]” was 10.80 ± 0.19 mM; in the series “purified protein [3]” it was 4.72 ± 0.05 mM; in the series “purified protein [4]”, 0.48 ± 0.004 mM; in “purified protein [5]”, 0.40 ± 0.05 mM; in the series “purified protein [6]”, 52.06 ± 1.38 mM; in “purified protein [7]”, 3.90 ± 0.067 mM. Further, in “purified protein [8]”, the Km turned out to be 8.14 ± 1.04 mM. Further, the Vmax was determined as 0.92 µmol/min/mg in “purified protein [2]”; 1.06 µmol/min/mg in “purified protein [3]”; 0.18 µmol/min/mg in “purified protein [4]”; 1.74 µmol/min/mg in the series “purified protein [5]”; 1.3 µmol/min/mg in “purified protein [6]”; 0.43 µmol/min/mg in the series “purified protein [7]”. Besides, the maximal velocity (Vmax) in the series “purified protein [8]” worked out at 1.53 µmol/min/mg. Also, the kcat in “purified protein [2]” is 0.63 ± 0.002 s⁻¹; in the series “purified protein [3]”, 0.73 ± 0.01 s⁻¹; in “purified protein [4]”, 0.121 ± 0.01 s⁻¹; in “purified protein [5]” it was 1.19 ± 0.009 s⁻¹; in “purified protein [6]”, 0.89 ± 0.01 s⁻¹; in the series “purified protein [7]”, 0.3 ± 0.01 s⁻¹. Besides, the kcat in the series “purified protein [8]” came to 1.05 ± 0.08 s⁻¹. For the same molecule, the kcat/Km in the series “purified protein [2]” amounted to 60 ± 8 M⁻¹ s⁻¹; in the series “purified protein [3]”, 150 ± 5 M⁻¹ s⁻¹; in the series “purified protein [4]”, 295 ± 35 M⁻¹ s⁻¹; in “purified protein [5]” it was 3030 ± 350 M⁻¹ s⁻¹; in the series “purified protein [6]” it was 20 ± 3 M⁻¹ s⁻¹; in “purified protein [7]”, 76 ± 1 M⁻¹ s⁻¹. Besides, in the series “purified protein [8]”, the catalytic efficiency (kcat/Km) is 130 ± 8 M⁻¹ s⁻¹.

These data come from publication PMC5501851, “A tyrosine aminotransferase involved in rosmarinic acid biosynthesis in Prunella vulgaris L” (Scientific Reports, 2017).
